The text below walks through data of patent US20110144312A1 (Kyowa Kirin, published 2011).

The target in one assay is T1, Ac-YHSNGYRARVRA-NH2 (human).
T1 peptide: Ac-YHSNGYRARVRA-NH2
The assay can be described thus: dot blot on PVDF or nitrocellulose membrane. The method, then: (§1) Methods to detect antibody binding to peptides derived from the human IL-10Rα sequence: Multiple methods were employed to detect binding of anti-human IL-10Rα antibodies to peptides derived from the extracellular domain of human IL-10Rα that have been reported by Reineke, et al. (Reineke, et al., Protein Sci 7:951 (1998)) to be included in the IL-10 binding site of the receptor. The following amide synthesized peptides were tested: Ac-[…]-NH2, Ac-[…]-NH2, Ac-[…]-NH2, Ac-[…]-NH2, Ac-[…]-NH2 (SEQ ID NO. 81-85). In addition, the following biotinylated peptides were tested: Biotin-[…]-NH2, Biotin-[…]-NH2 (SEQ ID NO. 86-87). The amide peptides were synthesized by A&A Labs, LLC (San Diego, Calif.) and the biotinylated peptides were synthesized by GenScript (Piscataway, N.J.) both at >95% purity and reconstituted at 20 mg/ml in DMSO. In one assay design peptides were spotted at 5 μg/spot in PBS onto PVDF membranes or nitrocellulose membranes that had been prepared according to the manufacturer's instructions. The membranes were incubated with anti-IL-10Rα antibodies using standard Western blotting methods (e.g. Towbin, et al., Proc Natl Acad Sci 76:4350 (1979)). Native human IL-10Ra:hFc and heat denatured human IL-10Ra:hFc were also spotted at 1 μg/spot on the membranes as controls. Negative controls included an irrelevant peptide and isotype controls. […] None of the antibodies bound to the spotted denatured protein or to any of the peptides derived from the human IL-10Ra extracellular domain or the irrelevant peptide.

For another assay, the target named is T2, Ac-GNFTFTHKKV-NH2 (human).
T2 peptide: Ac-GNFTFTHKKV-NH2
The assay can be described thus: dot blot on PVDF or nitrocellulose membrane. The method, then: as §1

The target in a further assay is T3, Ac-SVASRSNKGM-NH2 (human).
T3 peptide: Ac-SVASRSNKGM-NH2
The assay can be described thus: dot blot on PVDF or nitrocellulose membrane. The method, then:
as §1

Assay [1] concerns the target T4, human IL-10Rα on cells (human, UniProt Q13651 22-578).
T4 construct: Full-length entry with signal peptide; endogenous on PBMC and RPMI-8226 cells, transfected in EL-4 and CHO-K1 cells; also called IL-10R on RPMI-8226 cells; IL-10Rα on human PBMC, lymphocytes and monocytes
T4 sequence: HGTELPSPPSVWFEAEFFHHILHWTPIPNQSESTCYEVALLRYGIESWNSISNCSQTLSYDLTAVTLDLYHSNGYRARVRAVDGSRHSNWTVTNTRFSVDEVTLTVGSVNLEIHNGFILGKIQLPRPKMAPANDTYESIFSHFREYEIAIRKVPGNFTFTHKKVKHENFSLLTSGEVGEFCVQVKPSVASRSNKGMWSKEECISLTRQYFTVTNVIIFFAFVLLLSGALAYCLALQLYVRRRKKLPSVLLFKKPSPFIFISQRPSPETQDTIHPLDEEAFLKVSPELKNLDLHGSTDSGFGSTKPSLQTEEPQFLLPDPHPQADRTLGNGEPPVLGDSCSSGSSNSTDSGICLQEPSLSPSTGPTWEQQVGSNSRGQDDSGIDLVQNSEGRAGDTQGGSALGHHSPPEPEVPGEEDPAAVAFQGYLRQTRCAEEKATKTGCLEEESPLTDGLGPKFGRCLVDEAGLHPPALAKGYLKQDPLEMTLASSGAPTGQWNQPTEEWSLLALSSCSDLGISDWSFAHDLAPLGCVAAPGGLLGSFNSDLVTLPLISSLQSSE
The assay can be described thus: flow cytometry on RPMI-8226 cells; detection anti-human IgG-PE [B]. From the text: A) Titration of anti-IL-10Rα antibodies binding to coated human IL-10Rα:hFc. Binding was detected with anti-human kappa-HRP, anti-mouse IgG-HRP, or anti-rat IgG-HRP. […] RPMI-8226 cells were labeled with anti-human IL-10Rα antibodies at various concentrations and detected with anti-human IgG-PE. The commercial rat anti-human IL-10Rα antibody 3F9 was detected with anti-rat IgG-PE. The geometric mean fluorescence intensity (geo mean) data are shown.
The cells were washed once in staining buffer: PBS+2% FBS+0.01% NaN₃+10 mM EDTA, then blocked with 20 μg/ml rabbit IgG (Jackson Immunoresearch), resuspended in serum, supernatant, purified anti-human IL-10Rα antibodies, or isotype control antibodies in a final volume of 50 μl. The cells were incubated with the antibodies on ice for 20 minutes, washed twice in staining buffer then resuspended in an anti-human IgG secondary antibody for 20 minutes. […] If the biotinylated antibody was used, antibody binding was detected by labeling with streptavidin-phycoerythrin (SA-PE) for 20 minutes. Binding of rat and mouse anti-hIL-10Rα antibodies were detected with either biotinylated or PE conjugated anti-rat or anti-mouse IgG antibodies from multiple sources (Jackson Immunoresearch; Southern Biotech Associates; and BD Pharmingen, San Diego, Calif.). […]

For assay [2], the target named is T4, human IL-10Rα on cells. The assay can be described thus: flow cytometry, RPMI-8226 cells pre-incubated with biotinylated human IL-10 (competitor). The method, then:
IL-10 Blocking Assay: To determine if the anti-human IL-10Rα antibodies were blocked by binding of IL-10 to the receptor on the cell surface, a flow cytometric protocol was used. In the flow cytometric assay, RPMI-8226 cells were washed and resuspended in staining buffer and then incubated with biotinylated human IL-10 or a negative control protein (R&D Systems) for 30 minutes on ice. The anti-IL-10Rα antibodies were then added to the cells for an additional 30 minutes. The cells were washed and incubated with anti-human IgG conjugated to PE (Southern Biotech Associates) for 30 minutes. After another wash, the cells were fixed with 1% paraformaldehyde and analyzed on a FACS Calibur. The fold reduction in antibody binding was determined using the geometric mean fluorescence intensity in the following formula: Fold reduction=geometric mean fluorescence intensity in the absence of IL-10/geometric mean fluorescence intensity binding in presence of IL-10.
Recombinant IL-10 binding to the IL-10R expressed by RPMI-8226 cells reduced binding of the anti-human IL-10Rα antibodies (FIG. 3A). The reduction in antibody binding was similar for all antibodies tested. […] The fold reduction in binding by IL-10 (Table 3) was determined by dividing the geo mean of the antibody binding in the absence of IL-10 by the geo mean in the presence of IL-10. […]

B1: 136C5 (antibody, V domains shown)
VH: EVQLVESGGGLVQPGGSLRLSCAASGFTFSSYSMNWVRQAPGKGLEWVSYISTGSSTIYYADSVKGRFTISRDNAKNSLYLQMNSLRDEDTAVYYCARENYYGSGSYEDYFDYWGQGTLVTVSS
VL: EIVLTQSPATLSLSPGERATLSCRASQSVSSYLAWYQQKPGQAPRLLIYDASNRATGIPARFSGSGSGTDFTLTISSLEPEDFAVYYCQQRSNWPIFTFGPGTKVDIK
notes: Hybridoma antibody, human IgG1, kappa light chain; also called human anti-human IL-10Rα monoclonal antibody 136C5; hybridoma deposit PTA-9131
A word on the EC50 (read off the curve): it is the concentration needed to bring the measured effect to its halfway point. A high value points to lower potency in that assay. Consider B1, for which the binding result with Ac-YHSNGYRARVRA-NH2, with Ac-GNFTFTHKKV-NH2 and in the assay with Ac-SVASRSNKGM-NH2 was “no binding (tested: 5 µg/spot)” throughout. The “EC50 (read off the curve)” value in the assay with human IL-10Rα on cells [1] is about 0.5 µg/mL. In addition, the “Fold Reduction by IL-10” value with human IL-10Rα on cells [2] stood at 1.88 fold.

B2: 136C8 (antibody, V domains shown)
VH: EVQLVESGGGLVQPGGSLRLSCAASGFTFSSYSMNWVRQAPGKGLEWVSYISTRSSTIYYADSVKGRFTISRDNAKNSLYLQMNSLRDEDTAVYYCARENYYGSGSYEDYFDYWGQGTLVTVSS
VL: EIVLTQSPATLSLSPGERATLSCRASQSVSSYLAWYQQKPGQAPRLLIYDASNRATGIPARFSGSGSGTDFTLTISSLEPEDFAVYYCQQRSNWPIFTFGPGTKVDIK
notes: Hybridoma antibody, human IgG2, kappa light chain; also called human anti-human IL-10Rα monoclonal antibody 136C8; hybridoma deposit PTA-9132
Consider B2, for which the binding result with Ac-YHSNGYRARVRA-NH2, in the assay with Ac-GNFTFTHKKV-NH2 and in the assay with Ac-SVASRSNKGM-NH2 was “no binding (tested: 5 µg/spot)” in each case. Moreover, the “EC50 (read off the curve)” value with human IL-10Rα on cells [1] is about 0.5 µg/mL. For the same molecule, the “Fold Reduction by IL-10” value in the assay with human IL-10Rα on cells [2] came to 1.98 fold.
